Laboratory results: patent US20160304586A1

Target: hemagglutinin of influenza B virus (B/Brisbane/60/2008 BX-35) (Influenza B virus B/Brisbane/60/2008 BX-35)
Assay: cell-based or functional assay

B1: CR11039 (antibody, V domains shown)
VH: EVQLVQSGAEVKKPGESVKISCKTSGYAFTGYGISWVRQAPGQGLEWMGWINTYKFNTNYAQNLQGRVTMTIDTSTSAAYMELRSLRYEDTAVYFCARDWAGPFGNAFDVWGQGTMVTVSS
VL: IQMTQSPSSLSASIGDRVAITCQASQDISDYLNWYQQQPGKAPKLLLYGASNLETGVPSRFSGSGSGTDFTFTISSLQPEDIATYYCQQYGNLPPTFGGGTKLEIK
In the case of B1, the neutralizing capacity in MDCK cell culture, Experiment 5, CPE, undiluted virus is reported as > 0.4 µg/mL and the neutralizing capacity in MDCK cell culture, Experiment 6, CPE, undiluted virus is reported as > 0.8 µg/mL.
